9 molecules from article PMC11116469 can be followed below.

For experiment [1], the target named is FUS 6F-G variant (Phe residues of the RBD substituted to Gly) (UniProt P35637). The experiment is described as follows: DLS. Conditions: 10 µM FUS (RBD, F/Y-G/S), read off a plot.
Experiment [2] has as its target FUS 6Y-S variant (Tyr residues of the RBD substituted to Ser) (UniProt P35637). In words: DLS. The following applies: 10 µM FUS (RBD, F/Y-G/S), read off a plot.
In experiment [3] the target is FUS (10D/4E-G) variant (10 Asp and 4 Glu of the RBD substituted to Gly) (UniProt P35637). The experiment is described as follows: DLS. Conditions: 250 nM FUS (RBD, D/E-G), read off a plot.
Experiment [4] addresses FUS(Y-S) with 10 Tyr of the PLCD substituted to Ser (UniProt P35637). In words: DLS. Conditions: 10 µM FUS (PLD, Y-S), read off a plot.
The target of experiment [5] is FUS(Y-S) with 18 Tyr of the PLCD substituted to Ser (UniProt P35637). The experiment is described as follows: DLS. Conditions: 10 µM FUS (PLD, Y-S), read off a plot.
The target in experiment [6] is FUS(R-G) with 24 Arg of the RBD substituted to Gly (UniProt P35637). The experiment is described as follows: DLS. Conditions: 10 µM FUS (RBD, R-G), read off a plot.
Experiment [7] concerns the target FUS(R-K) with 24 Arg of the RBD substituted to Lys (UniProt P35637). The experiment is described as follows: DLS. Conditions: read off a plot.
Experiment [8] addresses FUS(Y-S) with 27 Tyr of the PLCD substituted to Ser (UniProt P35637). The experiment is described as follows: DLS. Conditions: 10 µM FUS (PLD, Y-S), read off a plot.
For experiment [9], the target named is T1, SNAP-tagged FUS (Fused in Sarcoma), P35637.
T1 chain: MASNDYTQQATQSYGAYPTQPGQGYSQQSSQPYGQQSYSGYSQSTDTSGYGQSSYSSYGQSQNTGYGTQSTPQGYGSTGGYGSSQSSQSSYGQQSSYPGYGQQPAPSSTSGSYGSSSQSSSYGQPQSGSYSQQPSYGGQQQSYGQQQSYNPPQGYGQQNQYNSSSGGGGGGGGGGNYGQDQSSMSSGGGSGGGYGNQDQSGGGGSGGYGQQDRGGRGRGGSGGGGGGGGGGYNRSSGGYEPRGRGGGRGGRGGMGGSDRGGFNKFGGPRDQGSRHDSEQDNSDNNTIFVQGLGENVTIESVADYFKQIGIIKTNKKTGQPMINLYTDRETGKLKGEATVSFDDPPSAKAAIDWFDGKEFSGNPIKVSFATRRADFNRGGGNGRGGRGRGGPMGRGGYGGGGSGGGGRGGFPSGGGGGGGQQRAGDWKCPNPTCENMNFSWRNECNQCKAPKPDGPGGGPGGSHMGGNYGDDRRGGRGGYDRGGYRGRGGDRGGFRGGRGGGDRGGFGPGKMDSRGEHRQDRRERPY
In words: nanoparticle tracking analysis (NTA); sub-saturated solutions of one protein in 100 mM KCl and 100 mM KGlu, 25 °C, recorded 6 min after preparation; abundance of mesoscale clusters. The following applies: remark: other sources report otherwise.

In the case of wild-type FUS 6F-G, the response in experiment [1] (KCl buffer) amounted to 1.2 Mcps; in experiment [1] (KGlu buffer) it was 1.7 Mcps.
On to wild-type FUS 6Y-S, for which the response was found to be 0.49 Mcps in experiment [2] (KCl buffer) and 1.4 Mcps in experiment [2] (KGlu buffer).
Regarding wild-type FUS 10D/4E-G, the response is 3.2 Mcps in experiment [3] (KCl buffer) and 3.8 Mcps in experiment [3] (KGlu buffer).
In the case of wild-type FUS 10Y-S, the response came to 0.81 Mcps in [4] (KCl buffer) and 1.9 Mcps in experiment [4] (KGlu buffer).
For wild-type FUS 18Y-S, the response was 0.79 Mcps in [5] (KCl buffer) and 1.3 Mcps in experiment [5] (KGlu buffer).
As for wild-type FUS 24R-G, the response is 1.2 Mcps in experiment [6] (KCl buffer) and 1.8 Mcps in experiment [6] (KGlu buffer).
As to wild-type FUS 24R-K, the response in experiment [7] (1 µM FUS (24R-K), KCl buffer) came to 0.13 Mcps; in [7] (1 µM FUS (24R-K), KGlu buffer), 1.9 Mcps; in experiment [7] (2 µM FUS (24R-K), KCl buffer), 0.32 Mcps; in [7] (2 µM FUS (24R-K), KGlu buffer), 2.4 Mcps; in [7] (3 µM FUS (24R-K), KCl buffer), 1.1 Mcps; in [7] (3 µM FUS (24R-K), KGlu buffer), 3.8 Mcps. Besides, the response in experiment [7] (4 µM FUS (24R-K), KCl buffer) turned out to be 1.4 Mcps; in experiment [7] (4 µM FUS (24R-K), KGlu buffer) it was 3.9 Mcps.
wild-type FUS 27Y-S: the values for the response in [8] (KCl buffer) and in [8] (KGlu buffer) were 0.74 Mcps and 0.86 Mcps, respectively.

B1: SNAP-tagged FUS (Fused in Sarcoma), P35637 1-526 (natural protein)
chain: T1 chain
modifications: here or on the partner: AF488 or AF647 label on the copies used in smFRET and FCS (FUS-SNAP-AF488, FUS-SNAP-AF647); unlabelled in DLS and NTA; AF488 or AF647 label on the copies used in smFRET and FCS (FUS-SNAP-AF488, FUS-SNAP-AF647); unlabelled in DLS and NTA
B1: in [9], the relative abundance of mesoscale clusters (100 mM KCl) was 0.2 to 0.4%.
